Earlier results as cited in article PMC3373146.
Like-named read-outs stand apart in the source and are kept apart here.

Experiments:
[1] = target: KCa2.3 (SK3) (UniProt Q9UGI6)
[2] = target: KCa2.2 (SK2) (UniProt Q9H2S1)
[3] = target: KCa2.1 (SK1) (UniProt Q92952)
[4] = target: Kv2.1 (UniProt Q14721)
[5] = target: Kv2.1 (UniProt Q14721); remark: listed apart in the source

Sequence of Kv2.1 (Q14721 whole entry): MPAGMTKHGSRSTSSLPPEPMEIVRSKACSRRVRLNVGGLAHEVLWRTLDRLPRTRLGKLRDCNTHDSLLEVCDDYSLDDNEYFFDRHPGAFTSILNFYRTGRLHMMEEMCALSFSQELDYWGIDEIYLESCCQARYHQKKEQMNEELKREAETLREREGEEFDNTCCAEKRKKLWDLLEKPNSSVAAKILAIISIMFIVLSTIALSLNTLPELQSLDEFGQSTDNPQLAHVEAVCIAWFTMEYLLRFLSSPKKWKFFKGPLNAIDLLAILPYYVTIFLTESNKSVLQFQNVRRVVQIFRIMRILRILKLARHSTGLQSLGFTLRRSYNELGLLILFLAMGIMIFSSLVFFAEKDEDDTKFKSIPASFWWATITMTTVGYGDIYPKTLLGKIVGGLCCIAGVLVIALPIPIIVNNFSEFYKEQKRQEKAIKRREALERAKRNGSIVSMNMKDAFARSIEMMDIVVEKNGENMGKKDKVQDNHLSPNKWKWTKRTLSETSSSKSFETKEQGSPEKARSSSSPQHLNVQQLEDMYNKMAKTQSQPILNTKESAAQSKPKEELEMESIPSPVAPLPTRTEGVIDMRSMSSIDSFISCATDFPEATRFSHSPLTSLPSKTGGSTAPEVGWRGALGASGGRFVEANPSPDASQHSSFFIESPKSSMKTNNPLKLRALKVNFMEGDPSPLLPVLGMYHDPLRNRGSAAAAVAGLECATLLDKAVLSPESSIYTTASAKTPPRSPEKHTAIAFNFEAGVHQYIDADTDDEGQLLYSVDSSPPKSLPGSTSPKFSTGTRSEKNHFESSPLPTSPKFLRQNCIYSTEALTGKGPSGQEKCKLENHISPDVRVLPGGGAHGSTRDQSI
Sequence of KCa2.3 (SK3) (Q9UGI6 whole entry): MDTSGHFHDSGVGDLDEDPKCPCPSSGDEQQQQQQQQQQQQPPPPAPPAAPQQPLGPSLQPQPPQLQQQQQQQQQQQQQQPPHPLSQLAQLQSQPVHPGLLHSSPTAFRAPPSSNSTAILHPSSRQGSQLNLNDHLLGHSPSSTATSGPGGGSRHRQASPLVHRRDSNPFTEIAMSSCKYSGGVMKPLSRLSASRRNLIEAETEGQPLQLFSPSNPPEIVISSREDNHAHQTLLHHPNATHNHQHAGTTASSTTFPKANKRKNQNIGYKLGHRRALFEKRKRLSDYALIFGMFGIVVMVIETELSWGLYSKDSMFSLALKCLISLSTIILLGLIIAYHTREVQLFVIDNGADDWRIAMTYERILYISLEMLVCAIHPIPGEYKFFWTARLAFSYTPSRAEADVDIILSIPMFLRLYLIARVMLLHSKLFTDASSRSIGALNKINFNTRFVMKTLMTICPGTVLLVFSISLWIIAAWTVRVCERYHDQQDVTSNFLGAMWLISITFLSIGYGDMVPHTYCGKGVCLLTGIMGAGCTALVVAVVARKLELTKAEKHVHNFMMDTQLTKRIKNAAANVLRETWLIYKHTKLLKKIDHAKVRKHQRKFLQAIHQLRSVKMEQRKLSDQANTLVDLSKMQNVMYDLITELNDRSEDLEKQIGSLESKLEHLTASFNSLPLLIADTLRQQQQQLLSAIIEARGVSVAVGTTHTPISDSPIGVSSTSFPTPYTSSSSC
Sequence of KCa2.1 (SK1) (Q92952 whole entry): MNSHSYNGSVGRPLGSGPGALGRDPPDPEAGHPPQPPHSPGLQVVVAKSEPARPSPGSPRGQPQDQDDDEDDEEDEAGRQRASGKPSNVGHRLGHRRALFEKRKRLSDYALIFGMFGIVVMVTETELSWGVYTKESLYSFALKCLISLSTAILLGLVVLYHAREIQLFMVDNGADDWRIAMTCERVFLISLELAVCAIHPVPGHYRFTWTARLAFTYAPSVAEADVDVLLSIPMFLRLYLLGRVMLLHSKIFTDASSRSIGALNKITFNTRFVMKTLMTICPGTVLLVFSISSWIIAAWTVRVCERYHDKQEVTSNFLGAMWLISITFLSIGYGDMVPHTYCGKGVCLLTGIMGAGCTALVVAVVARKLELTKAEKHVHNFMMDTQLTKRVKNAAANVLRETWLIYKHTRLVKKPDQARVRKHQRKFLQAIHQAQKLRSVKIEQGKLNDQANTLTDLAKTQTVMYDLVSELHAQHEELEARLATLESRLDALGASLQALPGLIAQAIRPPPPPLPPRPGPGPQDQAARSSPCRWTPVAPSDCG
Sequence of hanatoxin 2 (P56853 whole entry): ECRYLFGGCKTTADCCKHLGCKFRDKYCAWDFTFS
Sequence of KCa2.2 (SK2) (Q9H2S1 whole entry): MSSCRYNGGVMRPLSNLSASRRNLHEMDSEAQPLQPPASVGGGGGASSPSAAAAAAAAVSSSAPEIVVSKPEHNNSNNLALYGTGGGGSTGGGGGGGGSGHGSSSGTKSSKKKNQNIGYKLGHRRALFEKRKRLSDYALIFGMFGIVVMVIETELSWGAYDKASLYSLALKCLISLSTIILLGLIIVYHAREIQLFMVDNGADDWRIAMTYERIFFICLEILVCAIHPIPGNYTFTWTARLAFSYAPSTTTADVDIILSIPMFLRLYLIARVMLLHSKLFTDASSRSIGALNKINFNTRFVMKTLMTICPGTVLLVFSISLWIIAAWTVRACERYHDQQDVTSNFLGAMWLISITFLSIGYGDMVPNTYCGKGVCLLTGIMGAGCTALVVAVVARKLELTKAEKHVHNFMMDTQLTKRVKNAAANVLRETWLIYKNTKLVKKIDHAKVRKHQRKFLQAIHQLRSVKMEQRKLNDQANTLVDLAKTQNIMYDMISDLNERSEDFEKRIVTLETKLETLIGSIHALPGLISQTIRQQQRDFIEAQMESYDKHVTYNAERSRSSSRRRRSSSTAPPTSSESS
Sequence of hanatoxin 1 (P56852 50-84): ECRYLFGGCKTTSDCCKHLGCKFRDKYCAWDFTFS

In the case of apamin (from UniProt P01500), the Kd [1] is listed as 0.011 nM, the Kd [2] is listed as 0.004 nM and the Kd [3] is listed as 0.39 nM.
For hanatoxin 1 (from UniProt P56852), the Kd [4] is given as 42 nM.
For hanatoxin 2 (from UniProt P56853), the Kd [5] is listed as 42 nM.
